{"source": "patent US20240158479A1", "assay_in_all_cases": "cell-based or functional assay", "key": {"[1]": {"molecular_target": "Alpha spike (B.1.1.7) on pseudovirus (SARS-CoV-2)"}, "[2]": {"molecular_target": "Beta spike (B.1.351) on pseudovirus (SARS-CoV-2)"}, "[3]": {"molecular_target": "Delta spike (B.1.617.2) on pseudovirus (SARS-CoV-2)"}, "[4]": {"molecular_target": "Gamma spike (P.1) on pseudovirus (SARS-CoV-2)"}, "[5]": {"molecular_target": "Omicron BA.1 spike on pseudovirus (SARS-CoV-2)"}, "[6]": {"molecular_target": "Omicron BA.2 spike on pseudovirus (SARS-CoV-2)"}, "[7]": {"molecular_target": "Omicron BA.2.12.1 spike on pseudovirus (SARS-CoV-2)"}, "[8]": {"molecular_target": "Omicron BA.2.75 spike on pseudovirus (SARS-CoV-2)"}, "[9]": {"molecular_target": "Omicron BA.4.6 spike on pseudovirus (SARS-CoV-2)"}, "[10]": {"molecular_target": "Omicron BA.4/5 spike on pseudovirus (SARS-CoV-2)"}, "[11]": {"molecular_target": "Omicron BQ.1.1 spike on pseudovirus (SARS-CoV-2)"}}, "data": [{"substance": "Etesevimab (antibody)", "values": [{"measurement": "IC50, pseudovirus neutralization", "setting": "[1]", "result": 0.1, "unit": "µg/mL"}, {"measurement": "IC50, pseudovirus neutralization", "setting": "[2]", "result": "> 5", "unit": "µg/mL"}, {"measurement": "IC50, pseudovirus neutralization", "setting": "[3]", "result": 0.0058, "unit": "µg/mL"}, {"measurement": "IC50, pseudovirus neutralization", "setting": "[4]", "result": "> 5", "unit": "µg/mL"}, {"measurement": "IC50, pseudovirus neutralization", "setting": "[5]", "result": "> 5", "unit": "µg/mL"}, {"measurement": "IC50, pseudovirus neutralization", "setting": "[6]", "result": "> 5", "unit": "µg/mL"}, {"measurement": "IC50, pseudovirus neutralization", "setting": "[7]", "result": "> 5", "unit": "µg/mL"}, {"measurement": "IC50, pseudovirus neutralization", "setting": "[8]", "result": "> 5", "unit": "µg/mL"}, {"measurement": "IC50, pseudovirus neutralization", "setting": "[9]", "result": "> 5", "unit": "µg/mL"}, {"measurement": "IC50, pseudovirus neutralization", "setting": "[10]", "result": "> 5", "unit": "µg/mL"}, {"measurement": "IC50, pseudovirus neutralization", "setting": "[11]", "result": "> 5", "unit": "µg/mL"}]}, {"substance": "Cilgavimab (antibody)", "values": [{"measurement": "IC50, pseudovirus neutralization", "setting": "[1]", "result": 0.01, "unit": "µg/mL"}, {"measurement": "IC50, pseudovirus neutralization", "setting": "[2]", "result": 0.003, "unit": "µg/mL"}, {"measurement": "IC50, pseudovirus neutralization", "setting": "[3]", "result": 0.018, "unit": "µg/mL"}, {"measurement": "IC50, pseudovirus neutralization", "setting": "[4]", "result": 0.005, "unit": "µg/mL"}, {"measurement": "IC50, pseudovirus neutralization", "setting": "[5]", "result": 0.21, "unit": "µg/mL"}, {"measurement": "IC50, pseudovirus neutralization", "setting": "[6]", "result": 0.0091, "unit": "µg/mL"}, {"measurement": "IC50, pseudovirus neutralization", "setting": "[7]", "result": 0.019, "unit": "µg/mL"}, {"measurement": "IC50, pseudovirus neutralization", "setting": "[8]", "result": 0.055, "unit": "µg/mL"}, {"measurement": "IC50, pseudovirus neutralization", "setting": "[9]", "result": "> 5", "unit": "µg/mL"}, {"measurement": "IC50, pseudovirus neutralization", "setting": "[10]", "result": 0.018, "unit": "µg/mL"}, {"measurement": "IC50, pseudovirus neutralization", "setting": "[11]", "result": "> 5", "unit": "µg/mL"}]}, {"substance": "Bamlanivimab (antibody)", "values": [{"measurement": "IC50, pseudovirus neutralization", "setting": "[1]", "result": 0.0034, "unit": "µg/mL"}, {"measurement": "IC50, pseudovirus neutralization", "setting": "[2]", "result": 0.21, "unit": "µg/mL"}, {"measurement": "IC50, pseudovirus neutralization", "setting": "[3]", "result": 0.59, "unit": "µg/mL"}, {"measurement": "IC50, pseudovirus neutralization", "setting": "[4]", "result": 1.4, "unit": "µg/mL"}, {"measurement": "IC50, pseudovirus neutralization", "setting": "[5]", "result": "> 5", "unit": "µg/mL"}, {"measurement": "IC50, pseudovirus neutralization", "setting": "[6]", "result": "> 5", "unit": "µg/mL"}, {"measurement": "IC50, pseudovirus neutralization", "setting": "[7]", "result": "> 5", "unit": "µg/mL"}, {"measurement": "IC50, pseudovirus neutralization", "setting": "[8]", "result": "> 5", "unit": "µg/mL"}, {"measurement": "IC50, pseudovirus neutralization", "setting": "[9]", "result": "> 5", "unit": "µg/mL"}, {"measurement": "IC50, pseudovirus neutralization", "setting": "[10]", "result": "> 5", "unit": "µg/mL"}, {"measurement": "IC50, pseudovirus neutralization", "setting": "[11]", "result": "> 5", "unit": "µg/mL"}]}, {"substance": "Imdevimab (antibody)", "values": [{"measurement": "IC50, pseudovirus neutralization", "setting": "[1]", "result": 0.0028, "unit": "µg/mL"}, {"measurement": "IC50, pseudovirus neutralization", "setting": "[2]", "result": 0.0028, "unit": "µg/mL"}, {"measurement": "IC50, pseudovirus neutralization", "setting": "[3]", "result": 0.0035, "unit": "µg/mL"}, {"measurement": "IC50, pseudovirus neutralization", "setting": "[4]", "result": 0.0019, "unit": "µg/mL"}, {"measurement": "IC50, pseudovirus neutralization", "setting": "[5]", "result": "> 5", "unit": "µg/mL"}, {"measurement": "IC50, pseudovirus neutralization", "setting": "[6]", "result": 0.51, "unit": "µg/mL"}, {"measurement": "IC50, pseudovirus neutralization", "setting": "[7]", "result": 0.1, "unit": "µg/mL"}, {"measurement": "IC50, pseudovirus neutralization", "setting": "[8]", "result": "> 5", "unit": "µg/mL"}, {"measurement": "IC50, pseudovirus neutralization", "setting": "[9]", "result": 0.18, "unit": "µg/mL"}, {"measurement": "IC50, pseudovirus neutralization", "setting": "[10]", "result": 0.32, "unit": "µg/mL"}, {"measurement": "IC50, pseudovirus neutralization", "setting": "[11]", "result": "> 5", "unit": "µg/mL"}]}, {"substance": "Casirivimab (antibody)", "values": [{"measurement": "IC50, pseudovirus neutralization", "setting": "[1]", "result": 0.0052, "unit": "µg/mL"}, {"measurement": "IC50, pseudovirus neutralization", "setting": "[2]", "result": 0.094, "unit": "µg/mL"}, {"measurement": "IC50, pseudovirus neutralization", "setting": "[3]", "result": 0.0027, "unit": "µg/mL"}, {"measurement": "IC50, pseudovirus neutralization", "setting": "[4]", "result": 0.18, "unit": "µg/mL"}, {"measurement": "IC50, pseudovirus neutralization", "setting": "[5]", "result": "> 5", "unit": "µg/mL"}, {"measurement": "IC50, pseudovirus neutralization", "setting": "[6]", "result": "> 5", "unit": "µg/mL"}, {"measurement": "IC50, pseudovirus neutralization", "setting": "[7]", "result": "> 5", "unit": "µg/mL"}, {"measurement": "IC50, pseudovirus neutralization", "setting": "[8]", "result": 0.44, "unit": "µg/mL"}, {"measurement": "IC50, pseudovirus neutralization", "setting": "[9]", "result": "> 5", "unit": "µg/mL"}, {"measurement": "IC50, pseudovirus neutralization", "setting": "[10]", "result": "> 5", "unit": "µg/mL"}, {"measurement": "IC50, pseudovirus neutralization", "setting": "[11]", "result": "> 5", "unit": "µg/mL"}]}, {"substance": "Tixagevimab (antibody)", "values": [{"measurement": "IC50, pseudovirus neutralization", "setting": "[1]", "result": 0.0017, "unit": "µg/mL"}, {"measurement": "IC50, pseudovirus neutralization", "setting": "[2]", "result": 0.0054, "unit": "µg/mL"}, {"measurement": "IC50, pseudovirus neutralization", "setting": "[3]", "result": 0.0008, "unit": "µg/mL"}, {"measurement": "IC50, pseudovirus neutralization", "setting": "[4]", "result": 0.006, "unit": "µg/mL"}, {"measurement": "IC50, pseudovirus neutralization", "setting": "[5]", "result": 0.14, "unit": "µg/mL"}, {"measurement": "IC50, pseudovirus neutralization", "setting": "[6]", "result": "> 5", "unit": "µg/mL"}, {"measurement": "IC50, pseudovirus neutralization", "setting": "[7]", "result": 0.56, "unit": "µg/mL"}, {"measurement": "IC50, pseudovirus neutralization", "setting": "[8]", "result": 0.11, "unit": "µg/mL"}, {"measurement": "IC50, pseudovirus neutralization", "setting": "[9]", "result": "> 5", "unit": "µg/mL"}, {"measurement": "IC50, pseudovirus neutralization", "setting": "[10]", "result": "> 5", "unit": "µg/mL"}, {"measurement": "IC50, pseudovirus neutralization", "setting": "[11]", "result": "> 5", "unit": "µg/mL"}]}, {"substance": "Bebtelovimab (antibody)", "values": [{"measurement": "IC50, pseudovirus neutralization", "setting": "[1]", "result": 0.002, "unit": "µg/mL"}, {"measurement": "IC50, pseudovirus neutralization", "setting": "[2]", "result": 0.0009, "unit": "µg/mL"}, {"measurement": "IC50, pseudovirus neutralization", "setting": "[3]", "result": 0.0015, "unit": "µg/mL"}, {"measurement": "IC50, pseudovirus neutralization", "setting": "[4]", "result": 0.0017, "unit": "µg/mL"}, {"measurement": "IC50, pseudovirus neutralization", "setting": "[5]", "result": 0.0023, "unit": "µg/mL"}, {"measurement": "IC50, pseudovirus neutralization", "setting": "[6]", "result": 0.0018, "unit": "µg/mL"}, {"measurement": "IC50, pseudovirus neutralization", "setting": "[7]", "result": 0.0023, "unit": "µg/mL"}, {"measurement": "IC50, pseudovirus neutralization", "setting": "[8]", "result": 0.0033, "unit": "µg/mL"}, {"measurement": "IC50, pseudovirus neutralization", "setting": "[9]", "result": 0.0013, "unit": "µg/mL"}, {"measurement": "IC50, pseudovirus neutralization", "setting": "[10]", "result": 0.0014, "unit": "µg/mL"}, {"measurement": "IC50, pseudovirus neutralization", "setting": "[11]", "result": "> 5", "unit": "µg/mL"}]}]}
